From the Human Domainome abundance scans (Beltran et al. 2025)
± gives the uncertainty stated by the source.

B1: Membrane-associated guanylate kinase, WW and PDZ domain-containing protein 2, residues 601 to 682; numbered along this chain, Q86UL8 (parent)
chain: AELMTLTIVKGAQGFGFTIADSPTGQRVKQILDIQGCPGLCEGDLIVEINQQNVQNLSHTEVVDILKDCPIGSETSLIIHRG

Variants of: B1
Assay: abundance fitness (aPCA) (normalised: wild type 0, dead -1); higher = more abundant; growth selection in yeast, the domain comes from the species named
Conditions: Homo sapiens
A20M gave an abundance fitness of 0.228 ± 0.45. A20K gave an abundance fitness of -0.026 ± 0.18. Work on A20N yielded an abundance fitness of -0.142 ± 0.17. For A20E, the abundance fitness was -0.147 ± 0.16. For A20G, the abundance fitness was -0.069 ± 0.1. In the case of A20I, the abundance fitness is reported as 0.203 ± 0.27. A12C showed an abundance fitness of -0.044 ± 0.056. For A12N, the abundance fitness was -0.077 ± 0.07. Variant A12M has an abundance fitness of -0.034 ± 0.052. With A12H the abundance fitness was -0.209 ± 0.075. Variant A12E has an abundance fitness of -0.047 ± 0.041. Work on A12K yielded an abundance fitness of -0.036 ± 0.059. With A12S the abundance fitness was -0.046 ± 0.039. A12D gave an abundance fitness of -0.02 ± 0.064. Variant A12R has an abundance fitness of -0.029 ± 0.032. A12G showed an abundance fitness of 0.01 ± 0.032. Work on A12P yielded an abundance fitness of -0.043 ± 0.064. With A12L the abundance fitness was -0.05 ± 0.039. A12Q gave an abundance fitness of -0.037 ± 0.048. Variant A12I has an abundance fitness of -0.137 ± 0.065. Variant A12F has an abundance fitness of -0.075 ± 0.072. In the case of A12W, the abundance fitness is reported as -0.057 ± 0.052. For A12Y, the abundance fitness was -0.119 ± 0.061. Work on K10W yielded an abundance fitness of -0.446 ± 0.046. K10H showed an abundance fitness of -0.14 ± 0.065. Work on K10P yielded an abundance fitness of -0.146 ± 0.045. Work on K10V yielded an abundance fitness of -0.073 ± 0.034. K10L showed an abundance fitness of -0.239 ± 0.035. Variant K10M has an abundance fitness of -0.102 ± 0.047. Work on K10T yielded an abundance fitness of -0.182 ± 0.042. Variant K10S has an abundance fitness of -0.143 ± 0.037. K10I showed an abundance fitness of -0.185 ± 0.077. Work on K10G yielded an abundance fitness of -0.125 ± 0.032. Variant K10Q has an abundance fitness of -0.123 ± 0.042. With K10R the abundance fitness was -0.107 ± 0.03. For Q13Y, the abundance fitness was -0.096 ± 0.057. For Q13D, the abundance fitness was -0.062 ± 0.047. Q13I showed an abundance fitness of -0.218 ± 0.05. Q13S showed an abundance fitness of -0.027 ± 0.033. Q13C gave an abundance fitness of -0.06 ± 0.052. For Q13H, the abundance fitness was -0.161 ± 0.07. With Q13R the abundance fitness was -0.017 ± 0.033. Variant Q13E has an abundance fitness of 0.016 ± 0.046. With Q13W the abundance fitness was -0.101 ± 0.044. For Q13T, the abundance fitness was -0.038 ± 0.036. With Q13M the abundance fitness was -0.104 ± 0.04. Variant Q13V has an abundance fitness of -0.067 ± 0.036. Variant Q13P has an abundance fitness of -0.001 ± 0.04. Variant Q13A has an abundance fitness of -0.037 ± 0.039. Q13F gave an abundance fitness of -0.084 ± 0.043. Variant Q13G has an abundance fitness of 0 ± 0.036. Q13K showed an abundance fitness of -0.06 ± 0.039. Variant G11R has an abundance fitness of -0.094 ± 0.038. Variant G11A has an abundance fitness of 0.018 ± 0.046. With G11D the abundance fitness was 0.01 ± 0.061. In the case of G11E, the abundance fitness is reported as -0.118 ± 0.057. With G11M the abundance fitness was -0.095 ± 0.062. Variant G11K has an abundance fitness of -0.09 ± 0.058. For G11S, the abundance fitness was -0.023 ± 0.041. Variant G11Y has an abundance fitness of -0.124 ± 0.082. For G11Q, the abundance fitness was -0.119 ± 0.059. In the case of G11I, the abundance fitness is reported as -0.116 ± 0.062. In the case of G11N, the abundance fitness is reported as 0.017 ± 0.098. With G11W the abundance fitness was -0.223 ± 0.054. In the case of G11V, the abundance fitness is reported as 0.027 ± 0.047. For G11L, the abundance fitness was -0.104 ± 0.039. Variant G11H has an abundance fitness of -0.142 ± 0.13. For G11C, the abundance fitness was -0.146 ± 0.068. Variant G11T has an abundance fitness of -0.015 ± 0.052. Variant G11F has an abundance fitness of -0.114 ± 0.1. In the case of G11P, the abundance fitness is reported as 0.03 ± 0.056. F17G showed an abundance fitness of -1.11 ± 0.089. F17S gave an abundance fitness of -1.29 ± 0.12. Work on F17N yielded an abundance fitness of -1.36 ± 0.36. Variant F17Y has an abundance fitness of -0.277 ± 0.061. With F17A the abundance fitness was -0.697 ± 0.05. With F17D the abundance fitness was -1.18 ± 0.28. With F17K the abundance fitness was -0.978 ± 0.13. Work on F17W yielded an abundance fitness of -0.022 ± 0.039. In the case of F17M, the abundance fitness is reported as -0.105 ± 0.044. With F17Q the abundance fitness was -1.07 ± 0.23. Work on F17R yielded an abundance fitness of -1.12 ± 0.091. With F17I the abundance fitness was -0.057 ± 0.057. For F17H, the abundance fitness was -0.881 ± 0.16. In the case of F17E, the abundance fitness is reported as -0.75 ± 0.072. For F17C, the abundance fitness was -0.303 ± 0.047. In the case of F17P, the abundance fitness is reported as -1.04 ± 0.1. For F17T, the abundance fitness was -1.2 ± 0.13. Work on F17L yielded an abundance fitness of -0.124 ± 0.032. Variant G14T has an abundance fitness of -0.02 ± 0.037. For G14I, the abundance fitness was -0.168 ± 0.039. Variant G14Y has an abundance fitness of -0.071 ± 0.04. G14E gave an abundance fitness of -0.016 ± 0.053. With G14R the abundance fitness was -0.093 ± 0.033. Variant G14M has an abundance fitness of -0.089 ± 0.046. With G14F the abundance fitness was -0.21 ± 0.042. In the case of G14L, the abundance fitness is reported as -0.105 ± 0.032. With G14N the abundance fitness was 0.025 ± 0.041. With G14Q the abundance fitness was -0.052 ± 0.051. In the case of G14H, the abundance fitness is reported as -0.03 ± 0.041. In the case of G14A, the abundance fitness is reported as -0.152 ± 0.036. In the case of G14C, the abundance fitness is reported as -0.11 ± 0.038. Work on G14D yielded an abundance fitness of 0.07 ± 0.046. T18F gave an abundance fitness of -0.149 ± 0.088. For T18M, the abundance fitness was -0.061 ± 0.052. For T18Y, the abundance fitness was -0.032 ± 0.093. Work on T18H yielded an abundance fitness of -0.134 ± 0.073. Variant T18N has an abundance fitness of 0.001 ± 0.086. With T18P the abundance fitness was -1.1 ± 0.12. For T18C, the abundance fitness was -0.044 ± 0.049. For T18Q, the abundance fitness was -0.066 ± 0.048. T18I gave an abundance fitness of 0.008 ± 0.065. T18V gave an abundance fitness of -0.024 ± 0.033. In the case of T18L, the abundance fitness is reported as 0.01 ± 0.038. Work on T18E yielded an abundance fitness of 0 ± 0.039. Work on T18W yielded an abundance fitness of -0.075 ± 0.04. Variant T18D has an abundance fitness of -0.011 ± 0.064. Work on T18G yielded an abundance fitness of -0.068 ± 0.032. With T18S the abundance fitness was -0.013 ± 0.038. Work on T18K yielded an abundance fitness of 0.044 ± 0.06. I19T gave an abundance fitness of -0.169 ± 0.12. In the case of I19W, the abundance fitness is reported as -0.203 ± 0.1. In the case of I19H, the abundance fitness is reported as 0.134 ± 0.13. I19L showed an abundance fitness of -0.012 ± 0.085. Work on I19C yielded an abundance fitness of -0.335 ± 0.38. In the case of I19R, the abundance fitness is reported as -1.16 ± 0.25. With I19S the abundance fitness was -0.634 ± 0.17. Work on I19G yielded an abundance fitness of -1.31 ± 0.28. With I19Q the abundance fitness was -0.708 ± 0.32. I19P showed an abundance fitness of -0.023 ± 0.36. Work on I19E yielded an abundance fitness of -0.872 ± 0.4. I19A gave an abundance fitness of -0.542 ± 0.19. I19Y gave an abundance fitness of -0.148 ± 0.12. G16R gave an abundance fitness of -0.051 ± 0.028. For G16W, the abundance fitness was -0.045 ± 0.037. Variant G16M has an abundance fitness of -0.007 ± 0.039. For G16Q, the abundance fitness was -0.085 ± 0.04. In the case of G16K, the abundance fitness is reported as -0.029 ± 0.035. G16N gave an abundance fitness of 0.018 ± 0.051. In the case of G16L, the abundance fitness is reported as -0.014 ± 0.033. G16F gave an abundance fitness of -0.101 ± 0.063. Work on G16E yielded an abundance fitness of -0.059 ± 0.043. Variant G16S has an abundance fitness of -0.027 ± 0.035. With G16T the abundance fitness was -0.048 ± 0.037. G16I gave an abundance fitness of -0.268 ± 0.052. G16Y showed an abundance fitness of -0.155 ± 0.053. Variant G16H has an abundance fitness of -0.044 ± 0.058. Variant G16D has an abundance fitness of 0.071 ± 0.049. For G16C, the abundance fitness was -0.002 ± 0.047. In the case of G16A, the abundance fitness is reported as -0.144 ± 0.038. G16P gave an abundance fitness of -0.006 ± 0.043. For F15P, the abundance fitness was -0.063 ± 0.041. Variant F15L has an abundance fitness of 0.004 ± 0.03. Variant F15Y has an abundance fitness of -0.048 ± 0.064. For F15W, the abundance fitness was -0.002 ± 0.039. Variant F15N has an abundance fitness of -0.144 ± 0.049. Work on F15S yielded an abundance fitness of -0.143 ± 0.031. For F15V, the abundance fitness was -0.003 ± 0.033. Work on F15G yielded an abundance fitness of -0.221 ± 0.036. Variant F15C has an abundance fitness of -0.111 ± 0.042. With F15A the abundance fitness was -0.179 ± 0.045. In the case of F15E, the abundance fitness is reported as -0.141 ± 0.044. F15Q showed an abundance fitness of -0.062 ± 0.039. Variant F15M has an abundance fitness of 0.039 ± 0.044. For F15D, the abundance fitness was -0.118 ± 0.052. Work on F15R yielded an abundance fitness of -0.266 ± 0.034. Variant F15K has an abundance fitness of -0.322 ± 0.044.
